Data as given in patent US20220289837A1, “Cystic Fibrosis Transmembrane Conductance Regulator Stabilizing Agents” (VIB VZW, priority 2019, published 2022).

B1: T2a: NBD1-specific CFTR-stabilizing nanobody, SEQ ID NO:3, binds epitope 1 (protein)
VHH: QVQLQESGGGLVQAGGSLRLSCAASGSIFRIDAMGWYRQAPGKQRELVAHSTSGGSTDYADSVKGRFTISRDNAKNTVYLQMNSLKPEDTAVYYCNADVRTRWYASNNYWGQGTQVTVSS
modifications: T2a Nanobody amino acid sequence
B2: D12: NBD1-specific CFTR-stabilizing nanobody, SEQ ID NO:2, binds epitope 1 (protein)
VHH: QVQLQESGGGLVQAGSSLRLACAATGSIRSINNMGWYRQAPGKQRGMVAIITRVGNTDYADSVKGRFTISRDNAKNTVYLQMNSLKPEDTATYYCHAEITEQSRPFYLTDDYWGQGTQVTVSS
modifications: D12 Nanobody amino acid sequence
B3: T8: nanobody, SEQ ID NO:7, binds epitope 2 including F508, stabilizes WT CFTR but not F508del (protein)
VHH: QVQLQESGGGLVQPGGSLRLSCAASGSTSSINAMGWYRQAPGKQREPVAISSSGGDTRYAEPVKGRFTISRDNAQNKVYLQMNSLKPEDTAVYYCWLNWGRTSVNSWGQGTQVTVSS
modifications: T8 Nanobody amino acid sequence
B4: T27: NBD1-specific CFTR-stabilizing nanobody, SEQ ID NO:4, binds epitope 1 (protein)
VHH: QVQLQESGGGLEQPGGSLRLSCATSGVIFGINAMGWYRQAPGKQRELVATFTSGGSTNYADFVEGRFTISRDNAKNTVYLQMNGLRPEDTAVYYCHATVVVSRYGLTYDYWGQGTQVTVSS
modifications: T27 Nanobody amino acid sequence
B5: G3a: non-stabilizing nanobody, SEQ ID NO:50, recognizes the structurally diverse region of NBD1 (protein)
VHH: QVQLQESGGGLVQAGGSLRLSCTASGRAFSWYVMGWFRQAPGKEREFVATVSGNGSRRDYADSVKGRFTISRDNAKNTVYLQMNSLKPEDTAVYYCAASSTYYYTDPEKYDYWGQGTQVTVSS
modifications: G3a Nanobody

How the values were obtained:
[1] = target: T1, F508del-2PT-NBD1 (Homo sapiens, UniProt P13569, A534P/DEL508-508/I539T/S492P/V470M); experiment: Thermal shift assay (DSF) of F508del-2PT-NBD1; assay type: binding
T1 construct: His6-SUMO (N, cleaved yes); made in house; host or cells: Escherichia coli BL21(DE3) pLysS
Description: Solutions of either 2PT-NBD1 or F508del-2PT-NBD1 (10 μM final concentration), nanobodies (30 μM final concentration) and 2.5× or 5× concentrated SYPRO Orange Protein Stain (Molecular Probes) diluted in 20 mM HEPES pH 7.5, 150 mM NaCl, 3 mM MgCl2, 2 mM ATP and 10% (w/v) glycerol, 10% (w/v) ethylene glycol, were added to the wells of a 96-well PCR plates type BR white (VWR) in a final volume of 25 μl. Plates were sealed with EasySeal sheets (Molecular dimensions) and spun 2 min at 900× g. SYPRO orange fluorescence was monitored in CFX96 Touch Real-Time PCR Detection System (Bio-Rad) using FRET scan mode from 10 to 80° C. in increments of either 1° C. or 0.2° C.

[2] = target: T2, stab-CFTR: 2PT/ΔRI/R1048A_1172X (Homo sapiens, UniProt P13569, A534P/DEL405-436/I539T/R1048A/S492P); experiment: NanoDSF thermostability of stab-CFTR; assay type: binding; conditions: versus stab-CFTR alone
T2 construct: made in house; host or cells: BHK-21 cells (ATCC CCL-10), pNUT vector
Description: Purified stabilized human CFTR (stab-CFTR: 2PT/ΔRI/R1048A_1172X) was concentrated to 0.5 mg/ml and mixed with 0.1 mg/ml nanobody (^˜[…]) and capillaries were loaded with a volume of 10 The capillaries were placed into trays of Prometheus NT.48 (Nanotemper) and subjected to the fluorescence analysis. The emission of fluorescent radiation with the wavelengths of 330 nm and 350 nm was measured with the temperature changes from 25 to 85° C., with the rate of 1° C. min-1. The first derivative of 350 nm fluorescence was used to determine the melting temperature of the proteins.

[3] = target: T3, 2PT-F508del-CFTR (Homo sapiens, UniProt P13569, A534P/DEL508-508/I539T/S492P); experiment: Flow cytometry on BHK-21 cells expressing 2PT-F508del-CFTR; assay type: cell-based
T3 construct: expressed in transfected cells
Description: Parental BHK-21 cells (ATCC; CCL-10) and cells stably overexpressing human wt-CFTR^[43,44,47] or 2PT-F508del-CFTR, as described above, were permeabilized with 0.01% n-Dodecyl-β-D-Maltopyranoside β-DDM—Inalco) at least for 2 h on ice. In the meantime, cells were incubated with 50 μg/ml nanobodies and DRAQ7 (0.3 μM—Biostatus) to monitor the permeabilization state. Nanobody binding was detected by using His-tag specific antibody (Invitrogen, catalogue number MA1-135, 1 μg/ml) or Myc-tag specific antibody (Invitrogen, catalogue number 13-2500, 2 μg/ml) and then anti-mouse-Alexa Fluor 488 (Invitrogen, catalogue number A11001, 1.3 μg/ml) at least for 30 min on ice. Cells were washed one time between each step by centrifugation (200×g for 5 min at 4° C.). All incubations (100 μl) and washes (1.5 ml) were performed in PBS with 6% fetal bovine serum (FBS) and 0.01%13-DDM on ice. Cells fluorescence was measured with Gallios Flow Cytometer (Beckman Coulter). Data were analyzed with Kaluza software.

[4] = target: T1, F508del-2PT-NBD1; experiment: NBD1 ELISA dose-response, nanobody binding to immobilized F508del-2PT-NBD1; conditions: for effect of F508del mutation on binding: F508del-2PT-NBD1 versus 2PT-NBD1
Description: (§1) For dose-response assays, Nunc MaxiSorp 96-well plates (ThermoScientific), were coated with 5 μg/ml NeutrAvidin Biotin-Binding protein (ThermoScientific) overnight at 4° C. and blocked 2 h at room temperature (RT) with 2% milk in phosphate-buffered saline (PBS). Each new reagent addition was preceded by three washes with 200 μl of NBD1 buffer (20 mM HEPES pH 7.5, 150 mM NaCl, and 10% (w/v) glycerol, 10% (w/v) ethylene glycol, 2 mM ATP, 3 mM MgCl2). Then, biotinylated purified NBD1 proteins at 5 μg/ml were immobilized 30 min at RT followed by 1 h RT incubation with 100 μl various concentrations (0-20 μg/ml) of purified nanobodies. Signal detection was followed using His-tag specific antibody (Invitrogen, catalogue number: MA1-135, 1:3000 dilution) to detect the nanobodies and secondary antibody anti-mouse coupled to horse radish peroxidase (HRP) (Millipore, catalogue number: AP308P, 1:5000 dilution). 50 μl of 1-Step UltraTMB-ELISA (ThermoScientific) was used as a substrate for the peroxidase and intensity of the reaction was proportional to absorbance measured at 450 nm with SynergyMx (BioTek) after addition of 50 μl H2SO4 at 1M.
Affinity constants (KD) and thermodynamic parameters from ITC experiments were determined using one-site binding model with MicroCal Origin 7.0 software (Origin Lab Corp.). Dose response ELISA curves of each Nb binding to either isolated NBD1 or purified FL-CFTR were fitted using the sigmoidal dose-response equation from GraphPad Prism 3. DSC data were analyzed with the MicroCal Origin 7.0 software (Origin Lab Corp.), from which the unfolding temperature (Tm) was obtained.

[5] = target: wt-CFTR (Homo sapiens, UniProt P13569); experiment: Thermal inactivation of CFTR (residual ATPase activity after heat challenge); assay type: biochemical; design: His10-SUMO* (N); FLAG; EGFP (C); made in house; host or cells: HEK 293 cell line D165; conditions: residual ATPase activity after 30 min heat challenge
Description: To determine effect of nanobodies on functional stability, aliquots of purified wt-CFTR (25 nM) were preincubated 1 h on ice with 1 μM nanobody (or 15 μM, in the case of G3a). Substrate α-[32P]-ATP (2 μl) was then added for measurement of ATPase activity as previously described^[48]. Then, nanobody protection against thermal denaturation was determined after a 30 min thermal challenge of the protein complexes followed by an assay of residual ATPase.

[6] = target: T4, 2PT-NBD1 (Homo sapiens, UniProt P13569, A534P/I539T/S492P/V470M); experiment: NBD1 ELISA dose-response, nanobody binding to immobilized 2PT-NBD1; conditions: immobilized biotinylated 2PT-NBD1
T4 construct: 2PT-NBD1 mutants (residues 387-646 containing the mutations S492P, A534P, I539T); His6-SUMO (N, cleaved yes); made in house; host or cells: Escherichia coli BL21(DE3) pLysS
Description: as §1, with “Signal detection was followed using His-tag specific antibody (Invitrogen, catalogue number: MA1-135, 1:3000 dilution) to detect the nanobodies and secondary antibody anti-mouse coupled to horse radish peroxidase (HRP) (Millipore, catalogue number: AP308P, 1:5000 dilution).” left out
Affinity constants (KD) and thermodynamic parameters from ITC experiments were determined using one-site binding model with MicroCal Origin 7.0 software (Origin Lab Corp.). […] DSC data were analyzed with the MicroCal Origin 7.0 software (Origin Lab Corp.), from which the unfolding temperature (Tm) was obtained.

T1 sequence (P13569 with tags, fused parts or gaps V470M/S492P/DEL508-508/A534P/I539T limits assumed): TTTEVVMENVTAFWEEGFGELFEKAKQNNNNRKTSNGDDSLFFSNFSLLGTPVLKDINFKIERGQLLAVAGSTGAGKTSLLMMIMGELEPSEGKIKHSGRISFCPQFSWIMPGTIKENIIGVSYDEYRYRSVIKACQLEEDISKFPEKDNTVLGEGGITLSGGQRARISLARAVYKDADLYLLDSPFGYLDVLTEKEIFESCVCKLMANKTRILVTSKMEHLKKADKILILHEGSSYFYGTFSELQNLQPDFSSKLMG
T3 sequence (P13569 with tags, fused parts or gaps S492P/DEL508-508/A534P/I539T): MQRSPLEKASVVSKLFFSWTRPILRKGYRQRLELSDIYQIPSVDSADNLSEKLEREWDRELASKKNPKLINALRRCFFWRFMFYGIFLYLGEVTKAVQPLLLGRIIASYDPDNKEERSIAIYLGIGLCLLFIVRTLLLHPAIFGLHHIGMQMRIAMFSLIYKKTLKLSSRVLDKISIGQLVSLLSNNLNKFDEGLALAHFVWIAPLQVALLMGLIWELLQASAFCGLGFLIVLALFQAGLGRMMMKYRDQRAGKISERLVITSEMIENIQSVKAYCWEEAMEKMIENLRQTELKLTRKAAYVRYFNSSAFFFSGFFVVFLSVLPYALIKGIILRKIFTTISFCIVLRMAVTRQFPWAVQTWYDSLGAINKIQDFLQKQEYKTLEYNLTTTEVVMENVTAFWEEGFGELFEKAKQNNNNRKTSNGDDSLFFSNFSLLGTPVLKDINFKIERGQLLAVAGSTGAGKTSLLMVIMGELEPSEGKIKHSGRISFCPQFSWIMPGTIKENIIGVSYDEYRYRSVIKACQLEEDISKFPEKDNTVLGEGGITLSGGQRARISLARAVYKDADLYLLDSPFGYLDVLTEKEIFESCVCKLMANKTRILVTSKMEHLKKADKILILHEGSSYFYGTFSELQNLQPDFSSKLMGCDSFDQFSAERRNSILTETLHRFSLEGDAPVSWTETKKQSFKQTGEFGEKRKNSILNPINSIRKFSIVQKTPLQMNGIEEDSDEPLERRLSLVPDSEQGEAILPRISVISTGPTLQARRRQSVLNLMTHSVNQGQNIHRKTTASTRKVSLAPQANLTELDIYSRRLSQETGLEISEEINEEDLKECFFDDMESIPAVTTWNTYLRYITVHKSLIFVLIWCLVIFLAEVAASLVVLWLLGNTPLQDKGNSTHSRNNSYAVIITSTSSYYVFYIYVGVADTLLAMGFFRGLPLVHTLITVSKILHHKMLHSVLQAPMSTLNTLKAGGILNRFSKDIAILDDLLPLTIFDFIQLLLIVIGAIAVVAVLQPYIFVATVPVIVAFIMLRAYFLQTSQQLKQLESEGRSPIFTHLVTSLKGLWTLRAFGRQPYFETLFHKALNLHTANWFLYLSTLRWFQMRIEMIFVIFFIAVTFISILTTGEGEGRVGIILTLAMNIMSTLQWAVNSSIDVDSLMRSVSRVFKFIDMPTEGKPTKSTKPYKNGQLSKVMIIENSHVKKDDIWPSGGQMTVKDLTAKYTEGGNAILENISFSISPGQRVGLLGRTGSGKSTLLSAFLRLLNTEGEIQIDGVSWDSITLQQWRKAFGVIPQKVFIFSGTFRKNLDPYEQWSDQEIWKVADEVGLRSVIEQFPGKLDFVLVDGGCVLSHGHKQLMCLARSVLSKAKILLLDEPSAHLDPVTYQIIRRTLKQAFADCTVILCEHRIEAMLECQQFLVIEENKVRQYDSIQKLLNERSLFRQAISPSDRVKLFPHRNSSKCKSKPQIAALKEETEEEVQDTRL
Sequence of wt-CFTR (P13569 whole entry): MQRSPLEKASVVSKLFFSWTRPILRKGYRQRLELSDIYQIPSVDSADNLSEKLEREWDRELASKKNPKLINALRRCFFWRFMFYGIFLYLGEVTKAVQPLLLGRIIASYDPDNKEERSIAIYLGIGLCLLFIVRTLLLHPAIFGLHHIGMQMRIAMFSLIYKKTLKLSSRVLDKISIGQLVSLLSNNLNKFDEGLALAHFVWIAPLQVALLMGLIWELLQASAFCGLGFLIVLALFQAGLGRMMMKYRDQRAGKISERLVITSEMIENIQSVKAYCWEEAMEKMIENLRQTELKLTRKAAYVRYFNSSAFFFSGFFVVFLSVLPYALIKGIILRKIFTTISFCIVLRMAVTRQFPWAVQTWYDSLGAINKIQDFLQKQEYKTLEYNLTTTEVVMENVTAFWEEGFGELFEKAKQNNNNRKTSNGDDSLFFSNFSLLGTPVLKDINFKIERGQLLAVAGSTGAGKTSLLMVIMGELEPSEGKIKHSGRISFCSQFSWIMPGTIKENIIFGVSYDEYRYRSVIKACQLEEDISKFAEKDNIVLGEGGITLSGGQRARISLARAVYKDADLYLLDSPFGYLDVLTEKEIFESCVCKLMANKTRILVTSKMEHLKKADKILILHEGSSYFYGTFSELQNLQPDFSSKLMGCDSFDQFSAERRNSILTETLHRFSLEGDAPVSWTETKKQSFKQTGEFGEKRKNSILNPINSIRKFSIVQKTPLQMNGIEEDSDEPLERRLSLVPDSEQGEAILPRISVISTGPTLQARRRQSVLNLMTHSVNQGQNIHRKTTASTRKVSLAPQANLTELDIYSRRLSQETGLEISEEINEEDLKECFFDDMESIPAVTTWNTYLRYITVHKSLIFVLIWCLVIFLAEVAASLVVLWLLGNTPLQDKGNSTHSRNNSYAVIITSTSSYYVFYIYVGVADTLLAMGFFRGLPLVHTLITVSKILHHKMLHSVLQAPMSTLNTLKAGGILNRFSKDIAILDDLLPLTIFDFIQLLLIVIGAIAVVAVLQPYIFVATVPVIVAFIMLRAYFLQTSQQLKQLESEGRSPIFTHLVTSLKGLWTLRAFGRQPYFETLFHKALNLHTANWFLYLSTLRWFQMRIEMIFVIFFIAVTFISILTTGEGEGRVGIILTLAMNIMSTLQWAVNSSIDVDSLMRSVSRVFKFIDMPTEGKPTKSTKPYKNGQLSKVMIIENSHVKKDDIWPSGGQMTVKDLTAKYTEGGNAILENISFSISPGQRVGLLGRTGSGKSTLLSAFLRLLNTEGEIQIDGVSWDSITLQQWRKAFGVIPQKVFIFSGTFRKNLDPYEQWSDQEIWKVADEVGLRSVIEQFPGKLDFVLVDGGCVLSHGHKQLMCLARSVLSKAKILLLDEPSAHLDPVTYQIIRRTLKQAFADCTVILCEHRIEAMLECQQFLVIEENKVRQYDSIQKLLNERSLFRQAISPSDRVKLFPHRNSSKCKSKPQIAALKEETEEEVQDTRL
T2 sequence (P13569 with tags, fused parts or gaps DEL405-436/S492P/A534P/I539T/R1048A limits assumed): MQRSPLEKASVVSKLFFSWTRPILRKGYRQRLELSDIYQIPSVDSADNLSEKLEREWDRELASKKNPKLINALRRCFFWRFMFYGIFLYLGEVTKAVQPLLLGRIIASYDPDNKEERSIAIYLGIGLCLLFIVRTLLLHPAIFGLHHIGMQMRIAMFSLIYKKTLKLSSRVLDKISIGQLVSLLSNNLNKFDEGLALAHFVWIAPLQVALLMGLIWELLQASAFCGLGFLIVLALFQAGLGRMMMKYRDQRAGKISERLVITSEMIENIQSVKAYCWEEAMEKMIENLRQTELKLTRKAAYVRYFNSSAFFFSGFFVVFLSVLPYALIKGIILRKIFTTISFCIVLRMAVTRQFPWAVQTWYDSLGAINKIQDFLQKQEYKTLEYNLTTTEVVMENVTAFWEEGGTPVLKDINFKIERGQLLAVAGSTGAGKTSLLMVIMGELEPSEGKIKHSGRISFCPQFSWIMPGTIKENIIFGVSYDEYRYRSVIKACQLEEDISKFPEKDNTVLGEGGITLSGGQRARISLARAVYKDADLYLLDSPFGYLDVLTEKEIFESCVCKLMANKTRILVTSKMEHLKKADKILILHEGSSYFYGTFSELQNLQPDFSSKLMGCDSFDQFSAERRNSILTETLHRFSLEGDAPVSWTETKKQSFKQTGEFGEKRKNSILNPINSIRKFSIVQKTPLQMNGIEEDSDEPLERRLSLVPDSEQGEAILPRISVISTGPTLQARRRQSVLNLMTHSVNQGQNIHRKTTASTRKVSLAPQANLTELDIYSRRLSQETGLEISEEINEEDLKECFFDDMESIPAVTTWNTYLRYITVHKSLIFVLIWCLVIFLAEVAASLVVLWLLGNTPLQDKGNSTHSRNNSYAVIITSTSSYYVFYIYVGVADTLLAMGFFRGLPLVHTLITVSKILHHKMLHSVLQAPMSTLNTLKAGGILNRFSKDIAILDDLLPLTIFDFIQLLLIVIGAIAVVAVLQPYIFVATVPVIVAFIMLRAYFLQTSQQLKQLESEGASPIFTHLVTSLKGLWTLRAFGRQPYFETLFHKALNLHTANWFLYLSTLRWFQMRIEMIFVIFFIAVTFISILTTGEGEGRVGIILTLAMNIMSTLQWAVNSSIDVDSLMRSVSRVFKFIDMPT
T4 sequence (P13569 388-646 V470M/S492P/A534P/I539T): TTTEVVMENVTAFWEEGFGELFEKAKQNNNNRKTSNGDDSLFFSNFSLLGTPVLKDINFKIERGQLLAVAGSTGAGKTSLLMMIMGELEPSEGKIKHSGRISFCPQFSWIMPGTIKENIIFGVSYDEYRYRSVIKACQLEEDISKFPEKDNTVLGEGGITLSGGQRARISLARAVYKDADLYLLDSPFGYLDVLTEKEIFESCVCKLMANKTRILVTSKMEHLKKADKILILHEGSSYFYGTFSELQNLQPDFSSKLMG

Molecule | stabilization of F508del-2PT-NBD1 [1] | thermostabilization of stab-CFTR (Tm increase) [2] [°C] | binding to 2PT-F508del expressing cells [3] | effect of F508del mutation on binding [4] | shift of CFTR thermal inactivation [5] [°C] | EC50 of binding to 2PT-NBD1 [6] | EC50 of binding to F508del-2PT-NBD1 ([4]; immobilized F508del-2PT-NBD1)
B1 | to the same extent as 2PT-NBD1 | 8 | bind efficiently | not affected | – | – | –
B2 | to the same extent as 2PT-NBD1 | – | – | not affected | 7 | – | –
B3 | did not stabilize | – | not able to bind | drastically affected | – | – | –
B4 | to the same extent as 2PT-NBD1 | – | – | not affected | – | – | –
B5 | – | – | bind efficiently | – | 3.1 | weaker binding potency | weaker binding potency
